Laboratory results reported in PMC6061780.

Molecular target: Sc eIF4E (residues T25–L213), His6 tag removed (Saccharomyces cerevisiae) (UniProt P07260)
Assay: ITC

Sequence of Sc eIF4E (residues T25–L213), His6 tag removed (Saccharomyces cerevisiae) (P07260 25-213): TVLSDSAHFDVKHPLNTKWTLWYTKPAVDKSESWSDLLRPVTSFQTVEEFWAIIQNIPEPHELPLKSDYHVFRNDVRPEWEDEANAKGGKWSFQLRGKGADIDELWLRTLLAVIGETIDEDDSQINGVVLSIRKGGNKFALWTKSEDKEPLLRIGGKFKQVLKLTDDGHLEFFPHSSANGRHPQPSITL
Sequence of Sc p20 canonical motif (C)-GB1 (domain or fragment) (P12962 whole entry, the tested form may be a part): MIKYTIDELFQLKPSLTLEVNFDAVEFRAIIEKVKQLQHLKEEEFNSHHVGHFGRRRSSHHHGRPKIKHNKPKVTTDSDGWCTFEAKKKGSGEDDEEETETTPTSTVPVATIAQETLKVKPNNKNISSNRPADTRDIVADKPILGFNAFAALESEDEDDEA

Kd	Substance
70 nM	Sc eIF4G (residues V448–N500; C+L+NC)-GB1 (from UniProt P39935 448-500) (domain or fragment)
20 nM	Sc p20 canonical motif (C)-GB1 (domain or fragment)
2000 nM	Sc eIF4G canonical motif (C)-GB1 (domain or fragment)
